Experimental data reported in PMC7367873, “Dissecting the sequence determinants for dephosphorylation by the catalytic subunits of phosphatases PP1 and PP2A” (Nature Communications, 2020).
Each block holds one molecule with its values, some of them ahead of it.

How the values were obtained:
GFP-14-3-3β = GFP-14-3-3β co-IP with LC-MS/MS, untreated GFP-14-3-3β versus GFP control (14-3-3 interactome); assay type: binding, human; conditions: pairwise comparison untreated vs GFP
[1] = system: GFP-14-3-3β and its binding proteins; assay: GFP-14-3-3β co-IP with LC-MS/MS label-free quantification, untreated versus PP1c-treated; design: species or system human; conditions: pairwise comparison PP1 vs untreated
[2] = log2 difference, label-free quantification, 3 replicates each

Difference (log2), PP1 vs untreated [1]: -0.005819 log2
B1: SPECC1 (protein, UniProt Q5M775 1-1068, looked up)
Cytospin-B: MRSAAKPWNPAIRAGGHGPDRVRPLPAASSGMKSSKSSTSLAFESRLSRLKRASSEDTLNKPGSTAASGVVRLKKTATAGAISELTESRLRSGTGAFTTTKRTGIPAPREFSVTVSRERSVPRGPSNPRKSVSSPTSSNTPTPTKHLRTPSTKPKQENEGGEKAALESQVRELLAEAKAKDSEINRLRSELKKYKEKRTLNAEGTDALGPNVDGTSVSPGDTEPMIRALEEKNKNFQKELSDLEEENRVLKEKLIYLEHSPNSEGAASHTGDSSCPTSITQESSFGSPTGNQMSSDIDEYKKNIHGNALRTSGSSSSDVTKASLSPDASDFEHITAETPSRPLSSTSNPFKSSKCSTAGSSPNSVSELSLASLTEKIQKMEENHHSTAEELQATLQELSDQQQMVQELTAENEKLVDEKTILETSFHQHRERAEQLSQENEKLMNLLQERVKNEEPTTQEGKIIELEQKCTGILEQGRFEREKLLNIQQQLTCSLRKVEEENQGALEMIKRLKEENEKLNEFLELERHNNNMMAKTLEECRVTLEGLKMENGSLKSHLQGEKQKATEASAVEQTAESCEVQEMLKVARAEKDLLELSCNELRQELLKANGEIKHVSSLLAKVEKDYSYLKEICDHQAEQLSRTSLKLQEKASESDAEIKDMKETIFELEDQVEQHRAVKLHNNQLISELESSVIKLEEQKSDLERQLKTLTKQMKEETEEWRRFQADLQTAVVVANDIKCEAQQELRTVKRKLLEEEEKNARLQKELGDVQGHGRVVTSRAAPPPVDEEPESSEVDAAGRWPGVCVSRTSPTPPESATTVKSLIKSFDLGRPGGAGQNISVHKTPRSPLSGIPVRTAPAAAVSPMQRHSTYSSVRPASRGVTQRLDLPDLPLSDILKGRTETLKPDPHLRKSPSLESLSRPPSLGFGDTRLLSASTRAWKPQSKLSVERKDPLAALAREYGGSKRNALLKWCQKKTQGYANIDITNFSSSWSDGLAFCALLHTYLPAHIPYQELNSQEKKRNLLLAFEAAESVGIKPSLELSEMLYTDRPDWQSVMQYVAQIYKYFET
Difference (log2), untreated vs GFP (GFP-14-3-3β): 0.2064 log2

Difference (log2), PP1 vs untreated [1]: 0.01439 log2
B2: TSR1 (protein, UniProt Q2NL82 1-804, looked up)
Pre-rRNA-processing protein …: MAAHRPGPLKQQNKAHKGGRHRGRGSAQRDGKGRLALKTLSKKVRKELSRVDQRHRASQLRKQKKEAVLAEKRQLGGKDGPPHQVLVVPLHSRISLPEAMQLLQDRDTGTVHLNELGNTQNFMLLCPRLKHRWFFTSARPGDLHVVLDMAKVADTILFLLDPLEGWDSTGDYCLSCLFAQGLPTYTLAVQGISGLPLKKQIDTRKKLSKAVEKRFPHDKLLLLDTQQEAGMLLRQLANQKQQHLAFRDRRAYLFAHAVDFVPSEENNLVGTLKISGYVRGQTLNVNRLLHIVGYGDFQMKQIDAPGDPFPLNPRGIKPQKDPDMAMEICATDAVDDMEEGLKVLMKADPGRQESLQAEVIPDPMEGEQTWPTEEELSEAKDFLKESSKVVKKVPKGTSSYQAEWILDGGSQSGGEGDEYEYDDMEHEDFMEEESQDESSEEEEEYETMTIGESVHDDLYDKKVDEEAEAKMLEKYKQERLEEMFPDEVDTPRDVAARIRFQKYRGLKSFRTSPWDPKENLPQDYARIFQFQNFTNTRKSIFKEVEEKEVEGAEVGWYVTLHVSEVPVSVVECFRQGTPLIAFSLLPHEQKMSVLNMVVRRDPGNTEPVKAKEELIFHCGFRRFRASPLFSQHTAADKHKLQRFLTADMALVATVYAPITFPPASVLLFKQKSNGMHSLIATGHLMSVDPDRMVIKRVVLSGHPFKIFTKMAVVRYMFFNREDVLWFKPVELRTKWGRRGHIKEPLGTHGHMKCSFDGKLKSQDTVLMNLYKRVFPKWTYDPYVPEPVPWLKSEISSTVPQGGME
Difference (log2), untreated vs GFP (GFP-14-3-3β): 1.267 log2

Difference (log2), PP1 vs untreated [1]: -0.01052 log2
B3: HNRNPM (protein, UniProt P52272 2-730, looked up)
Heterogeneous nuclear …: AAGVEAAAEVAATEIKMEEESGAPGVPSGNGAPGPKGEGERPAQNEKRKEKNIKRGGNRFEPYANPTKRYRAFITNIPFDVKWQSLKDLVKEKVGEVTYVELLMDAEGKSRGCAVVEFKMEESMKKAAEVLNKHSLSGRPLKVKEDPDGEHARRAMQKVMATTGGMGMGPGGPGMITIPPSILNNPNIPNEIIHALQAGRLGSTVFVANLDYKVGWKKLKEVFSMAGVVVRADILEDKDGKSRGIGTVTFEQSIEAVQAISMFNGQLLFDRPMHVKMDERALPKGDFFPPERPQQLPHGLGGIGMGLGPGGQPIDANHLNKGIGMGNIGPAGMGMEGIGFGINKMGGMEGPFGGGMENMGRFGSGMNMGRINEILSNALKRGEIIAKQGGGGGGGSVPGIERMGPGIDRLGGAGMERMGAGLGHGMDRVGSEIERMGLVMDRMGSVERMGSGIERMGPLGLDHMASSIERMGQTMERIGSGVERMGAGMGFGLERMAAPIDRVGQTIERMGSGVERMGPAIERMGLSMERMVPAGMGAGLERMGPVMDRMATGLERMGANNLERMGLERMGANSLERMGLERMGANSLERMGPAMGPALGAGIERMGLAMGGGGGASFDRAIEMERGNFGGSFAGSFGGAGGHAPGVARKACQIFVRNLPFDFTWKMLKDKFNECGHVLYADIKMENGKSKGCGVVKFESPEVAERACRMMNGMKLSGREIDVRIDRNA
Difference (log2), untreated vs GFP (GFP-14-3-3β): 0.1311 log2

Difference (log2), PP1 vs untreated [1]: 0.06363 log2
B4: SOAT1 (protein, UniProt P35610 1-550, looked up)
Sterol O-acyltransferase 1: MVGEEKMSLRNRLSKSRENPEEDEDQRNPAKESLETPSNGRIDIKQLIAKKIKLTAEAEELKPFFMKEVGSHFDDFVTNLIEKSASLDNGGCALTTFSVLEGEKNNHRAKDLRAPPEQGKIFIARRSLLDELLEVDHIRTIYHMFIALLILFILSTLVVDYIDEGRLVLEFSLLSYAFGKFPTVVWTWWIMFLSTFSVPYFLFQHWATGYSKSSHPLIRSLFHGFLFMIFQIGVLGFGPTYVVLAYTLPPASRFIIIFEQIRFVMKAHSFVRENVPRVLNSAKEKSSTVPIPTVNQYLYFLFAPTLIYRDSYPRNPTVRWGYVAMKFAQVFGCFFYVYYIFERLCAPLFRNIKQEPFSARVLVLCVFNSILPGVLILFLTFFAFLHCWLNAFAEMLRFGDRMFYKDWWNSTSYSNYYRTWNVVVHDWLYYYAYKDFLWFFSKRFKSAAMLAVFAVSAVVHEYALAVCLSFFYPVLFVLFMFFGMAFNFIVNDSRKKPIWNVLMWTSLFLGNGVLLCFYSQEWYARQHCPLKNPTFLDYVRPRSWTCRYVF
Difference (log2), untreated vs GFP (GFP-14-3-3β): 0.443 log2

Difference (log2), PP1 vs untreated [1]: -0.01679 log2
B5: DNAJC10 (protein, UniProt Q8IXB1 33-793, looked up)
DnaJ homolog subfamily C …: DQDFYSLLGVSKTASSREIRQAFKKLALKLHPDKNPNNPNAHGDFLKINRAYEVLKDEDLRKKYDKYGEKGLEDNQGGQYESWNYYRYDFGIYDDDPEIITLERREFDAAVNSGELWFVNFYSPGCSHCHDLAPTWRDFAKEVDGLLRIGAVNCGDDRMLCRMKGVNSYPSLFIFRSGMAPVKYHGDRSKESLVSFAMQHVRSTVTELWTGNFVNSIQTAFAAGIGWLITFCSKGGDCLTSQTRLRLSGMLDGLVNVGWMDCATQDNLCKSLDITTSTTAYFPPGATLNNKEKNSILFLNSLDAKEIYLEVIHNLPDFELLSANTLEDRLAHHRWLLFFHFGKNENSNDPELKKLKTLLKNDHIQVGRFDCSSAPDICSNLYVFQPSLAVFKGQGTKEYEIHHGKKILYDILAFAKESVNSHVTTLGPQNFPANDKEPWLVDFFAPWCPPCRALLPELRRASNLLYGQLKFGTLDCTVHEGLCNMYNIQAYPTTVVFNQSNIHEYEGHHSAEQILEFIEDLMNPSVVSLTPTTFNELVTQRKHNEVWMVDFYSPWCHPCQVLMPEWKRMARTLTGLINVGSIDCQQYHSFCAQENVQRYPEIRFFPPKSNKAYHYHSYNGWNRDAYSLRIWGLGFLPQVSTDLTPQTFSEKVLQGKNHWVIDFYAPWCGPCQNFAPEFELLARMIKGKVKAGKVDCQAYAQTCQKAGIRAYPTVKFYFYERAKRNFQEEQINTRDAKAIAALISEKLETLRNQGKRNKDEL
Difference (log2), untreated vs GFP (GFP-14-3-3β): 0.1892 log2

Difference (log2), PP1 vs untreated [1]: 0.02225 log2
B6: EEF1A1P5;EEF1A1 (protein, UniProt P68104 2-462, looked up)
Elongation factor 1-alpha 1: GKEKTHINIVVIGHVDSGKSTTTGHLIYKCGGIDKRTIEKFEKEAAEMGKGSFKYAWVLDKLKAERERGITIDISLWKFETSKYYVTIIDAPGHRDFIKNMITGTSQADCAVLIVAAGVGEFEAGISKNGQTREHALLAYTLGVKQLIVGVNKMDSTEPPYSQKRYEEIVKEVSTYIKKIGYNPDTVAFVPISGWNGDNMLEPSANMPWFKGWKVTRKDGNASGTTLLEALDCILPPTRPTDKPLRLPLQDVYKIGGIGTVPVGRVETGVLKPGMVVTFAPVNVTTEVKSVEMHHEALSEALPGDNVGFNVKNVSVKDVRRGNVAGDSKNDPPMEAAGFTAQVIILNHPGQISAGYAPVLDCHTAHIACKFAELKEKIDRRSGKKLEDGPKFLKSGDAAIVDMVPGKPMCVESFSDYPPLGRFAVRDMRQTVAVGVIKAVDKKAAGAGKVTKSAQKAQKAK
Difference (log2), untreated vs GFP (GFP-14-3-3β): -0.241 log2

Difference (log2), PP1 vs untreated [1, 2]: 1.883
B7: NAP1L1 (protein, UniProt P55209 2-388, looked up)
Nucleosome assembly protein …: ADIDNKEQSELDQDLDDVEEVEEEETGEETKLKARQLTVQMMQNPQILAALQERLDGLVETPTGYIESLPRVVKRRVNALKNLQVKCAQIEAKFYEEVHDLERKYAVLYQPLFDKRFEIINAIYEPTEEECEWKPDEEDEISEELKEKAKIEDEKKDEEKEDPKGIPEFWLTVFKNVDLLSDMVQEHDEPILKHLKDIKVKFSDAGQPMSFVLEFHFEPNEYFTNEVLTKTYRMRSEPDDSDPFSFDGPEIMGCTGCQIDWKKGKNVTLKTIKKKQKHKGRGTVRTVTKTVSNDSFFNFFAPPEVPESGDLDDDAEAILAADFEIGHFLRERIIPRSVLYFTGEAIEDDDDDYDEEGEEADEEGEEEGDEENDPDYDPKKDQNPAEC
Difference (log2), untreated vs GFP (GFP-14-3-3β; [2]): -0.3295

Difference (log2), PP1 vs untreated [1]: 0.03143 log2
B8: LYPD3 (protein, UniProt O95274 31-326, looked up)
Ly6/PLAUR domain-containing …: LECYSCVQKADDGCSPNKMKTVKCAPGVDVCTEAVGAVETIHGQFSLAVRGCGSGLPGKNDRGLDLHGLLAFIQLQQCAQDRCNAKLNLTSRALDPAGNESAYPPNGVECYSCVGLSREACQGTSPPVVSCYNASDHVYKGCFDGNVTLTAANVTVSLPVRGCVQDEFCTRDGVTGPGFTLSGSCCQGSRCNSDLRNKTYFSPRIPPLVRLPPPEPTTVASTTSVTTSTSAPVRPTSTTKPMPAPTSQTPRQGVEHEASRDEEPRLTGGAAGHQDRSNSGQYPAKGGPQQPHNKGC
Difference (log2), untreated vs GFP (GFP-14-3-3β): -0.7562 log2

Difference (log2), PP1 vs untreated [1]: 0.0136 log2
B9: PHF6 (protein, UniProt Q8IWS0 2-365, looked up)
PHD finger protein 6: SSSVEQKKGPTRQRKCGFCKSNRDKECGQLLISENQKVAAHHKCMLFSSALVSSHSDNESLGGFSIEDVQKEIKRGTKLMCSLCHCPGATIGCDVKTCHRTYHYHCALHDKAQIREKPSQGIYMVYCRKHKKTAHNSEADLEESFNEHELEPSSPKSKKKSRKGRPRKTNFKGLSEDTRSTSSHGTDEMESSSYRDRSPHRSSPSDTRPKCGFCHVGEEENEARGKLHIFNAKKAAAHYKCMLFSSGTVQLTTTSRAEFGDFDIKTVLQEIKRGKRMKCTLCSQPGATIGCEIKACVKTYHYHCGVQDKAKYIENMSRGIYKLYCKNHSGNDERDEEDEERESKSRGKVEIDQQQLTQQQLNGN
Difference (log2), untreated vs GFP (GFP-14-3-3β): 0.8956 log2
